PMC3060121, “The Peroxisomal Targeting Signal 1 in sterol carrier protein 2 is autonomous and essential for receptor recognition” (BMC Biochemistry, 2011)

Columns and labels:
[1] = target: T1, human Pex5p(C) (residues 315-639) D624W (human, UniProt P50542 315-639, D624W, biotin (EZ-Link Sulfo-NHS-Biotinylation Kit, between 1 and 2 moles of biotin per mole) in the Octet RED96 assay only); test: BLI; Octet RED96; biotinylated Pex5p(C) immobilised on streptavidin sensors at 20 μg/mL; PBS, 1000 rpm; association 1800 s, dissociation 1800 s; local fits, 1:1 model; conditions: both partners purified
T1 construct: Made by QuikChange on the His6-GST Pex5p(C) plasmid; also called Pex5p(C) D624W

[2] = target: T2, human Pex5p(C) (residues 315-639) S600W, infantile Refsum disease mutant (human, UniProt P50542 315-639, S600W, biotin (EZ-Link Sulfo-NHS-Biotinylation Kit, between 1 and 2 moles of biotin per mole)); test: as above; conditions: both partners purified
T2 construct: also called Pex5p(C)S600W

[3] = target: T3, human Pex5p(C), cargo-binding domain of Pex5p (residues 315-639), wild-type (human, UniProt P50542 315-639, biotin (EZ-Link Sulfo-NHS-Biotinylation Kit, between 1 and 2 moles of biotin per mole) in the Octet RED96 assay only); test: as above; conditions: both partners purified
T3 construct: The His6-GST fusion is cleavable with TEV protease; also called Pex5p(C) WT; HsPex5p(C)

[4] = target: T4, human Pex5p(C) (residues 315-639) R608W (human, UniProt P50542 315-639, R608W, biotin (EZ-Link Sulfo-NHS-Biotinylation Kit, between 1 and 2 moles of biotin per mole) in the Octet RED96 assay only); test: as above; conditions: both partners purified
T4 construct: Made by QuikChange on the His6-GST Pex5p(C) plasmid; also called Pex5p(C) R608W

[5] = target: T5, Gal4DB-preSCP2 (1-143), two-hybrid fusion (human, UniProt P22307-2 1-143); test: two-hybrid; GAL4 based, S. cerevisiae PCY2; Gal4AD-Pex5p(C) with Gal4DB-SCP2 variants; β-galactosidase activity (A420 per mg protein per min), mean of three measurements; conditions: partners not purified
T5 construct: sterol carrier protein 2, human, residues 1-143, printed length 143; numbers count on: preSCP2 of 143 residues; In pPC97 between SalI and NotI; source: yeast two-hybrid fusion (S. cerevisiae PCY2)
T5 sequence (looked up): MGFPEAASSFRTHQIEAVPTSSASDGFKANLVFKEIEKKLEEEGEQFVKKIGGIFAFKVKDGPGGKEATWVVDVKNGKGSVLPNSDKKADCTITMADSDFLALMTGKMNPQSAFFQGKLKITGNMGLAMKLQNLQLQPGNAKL

[6] = target: T6, Gal4DB-mSCP2 (21-143), two-hybrid fusion (human, UniProt P22307-2 21-143); test: as above; conditions: partners not purified
T6 construct: sterol carrier protein 2, human, residues 21-143; numbers count on: preSCP2 of 143 residues; In pPC97 between SalI and NotI; source: yeast two-hybrid fusion (S. cerevisiae PCY2)
T6 sequence (looked up): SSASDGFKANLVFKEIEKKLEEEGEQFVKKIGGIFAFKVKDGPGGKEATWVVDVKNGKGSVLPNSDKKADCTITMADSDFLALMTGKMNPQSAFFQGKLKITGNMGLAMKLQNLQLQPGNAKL

[7] = target: T1, human Pex5p(C) (residues 315-639) D624W; test: ITC; MicroCal VP-ITC; Pex5p(C) wild-type or mutant titrated with mSCP2 or the peptide PGNAKL; as described in ref 4; conditions: both partners purified
[8] = target: T3, human Pex5p(C), cargo-binding domain of …; test: as above; conditions: both partners purified
[9] = target: T4, human Pex5p(C) (residues 315-639) R608W; test: as above; conditions: both partners purified

B1: sterol carrier protein 2 with presequence, preSCP2 (1-143) (natural protein, human, UniProt P22307-2 1-143, looked up)
chain: T5 sequence (looked up)
notes: numbers count on: preSCP2 of 143 residues; The His6-GST fusion is cleavable with TEV protease; also called full-length SCP2
Which results are given for B1?
koff [1]: 8.6e-05 s⁻¹; kon [1]: 13000 M⁻¹ s⁻¹; koff [2]: 5.1e-05 s⁻¹; kon [2]: 7300 M⁻¹ s⁻¹; koff [3]: 7.9e-05 s⁻¹; kon [3]: 35000 M⁻¹ s⁻¹; koff [4]: 5e-05 s⁻¹; kon [4]: 9000 M⁻¹ s⁻¹

B2: Gal4AD-Pex5p(C) (residues 315-639) R608W, two-hybrid fusion (domain or fragment)
chain: not shown
notes: also called Pex5p(C) R608W; source: yeast two-hybrid fusion (S. cerevisiae PCY2)
Which results are given for B2?
fold reduction of the two-hybrid interaction against wild-type Pex5p(C) [5]: 3 fold; fold reduction of the two-hybrid interaction against wild-type Pex5p(C) [6]: 3 fold

B3: mature sterol carrier protein 2, mSCP2 (21-143) (natural protein, human, UniProt P22307-2 21-143, looked up)
chain: T6 sequence (looked up)
notes: numbers count on: preSCP2 of 143 residues; The His6-GST fusion is cleavable with TEV protease
With B3 as the binder, how does the Kd [7] read?
The Kd was 45 ± 8 nM.

And the dH [7]?
The dH was -13.3 kcal/mol.

What about the “stoichiometry N” value [7] of the same binder?
Its value is 0.41 ± 0.08.

And the Kd [8]?
Its Kd is 95 ± 21 nM.

And the dH [8]?
The dH was -10.4 kcal/mol.

What about the “stoichiometry N” value [8] of the same binder?
The value was 0.93 ± 0.03.

And the Kd [9]?
The Kd was 179 ± 19 nM.

And the dH [9]?
The dH was -17.1 kcal/mol.

And the “stoichiometry N” value [9]?
The value was 0.61 ± 0.06.

And the koff [1]?
The koff was 0.00015 s⁻¹.

What about the kon [1] of the same binder?
The kon was 11000 M⁻¹ s⁻¹.

What about the koff [2] of the same binder?
The koff was 6e-05 s⁻¹.

What about the kon [2] of the same binder?
Its kon is 6500 M⁻¹ s⁻¹.

What about the koff [3] of the same binder?
The koff was 5.5e-05 s⁻¹.

What about the kon [3] of the same binder?
The kon was 23000 M⁻¹ s⁻¹.

What about the koff [4] of the same binder?
The koff was 7.3e-05 s⁻¹.

What about the kon [4] of the same binder?
The kon was 7200 M⁻¹ s⁻¹.

B4: PTS1 hexapeptide PGNAKL derived from the C-terminus of SCP2 (peptide)
peptide: PGNAKL
notes: C-terminal six residues of sterol carrier protein 2, human; numbers count on: preSCP2 of 143 residues; Free C-terminal carboxylate (PGNAKL-CO2-) as printed in the background; also called PGNAKL-CO2-; source: synthetic peptide (Sigma-Aldrich, > 95% purity)
Which Kd [7] does the source give for B4 here?
Its Kd is 763 nM.

And the dH [7]?
The dH was -13.1 kcal/mol.

And the “stoichiometry N” value [7]?
Its value is 0.49 ± 0.01.

And the Kd [8]?
Its Kd is 547 ± 6 nM.

And the dH [8]?
The dH was -10.2 kcal/mol.

And the “stoichiometry N” value [8]?
Its value is 0.94 ± 0.02.

What about the Kd [9] of the same binder?
The Kd was 635 ± 25 nM.

And the dH [9]?
Its dH is -12.3 kcal/mol.

And the “stoichiometry N” value [9]?
Its value is 0.81 ± 0.01.
